Drawing on the RNAGym collection of RNA variant scans (doi:10.7554/elife.80360), this text covers self-cleavage for 167 variants.

B1: Twister Ribozyme (parent)
chain: AACACUGCCAAUGCCGGUCCCAAGCCCGGAUAAAAGUGGAGGGGGCGG

The variants in this data set derive from B1. Put plainly: self-cleavage, relative activity (ratio to wild type); higher = more cleavage; co-transcriptional.
For C8U A23U, the self-cleavage was 0.078.
In the case of A22G A34U, the self-cleavage was found to be 0.096.
For the variant C27A G28U, the self-cleavage was 0.37.
Then G7A G39C, with 0.141.
Then A2U G41C, with 0.175; and A4C G29U, with 0.145; and A4C G29A, with 0.168.
Regarding A11C G36U, the self-cleavage was 0.8.
For C14A G17U, the self-cleavage was determined as 0.361.
Turning to A34C U37G, the self-cleavage amounted to 0.249.
On to A34C U37A, for which the self-cleavage came out at 0.169.
Then C20A G38A, with 0.0955; and U37G A40C, with 0.163.
Then C14A U37G, with 0.725.
Next, A33G G38C: 0.878.
In the case of A2C G7A, the self-cleavage was 0.0438.
Then A2U C26U, with 0.069.
Next, C9A A23G: 0.055; A4U G41A: 0.0938; G24A C27U: 0.106.
With A33C G39U, the self-cleavage amounted to 0.21.
Then C14A U18G, with 0.0811.
Consider C14A U18A, for which the self-cleavage is 0.485.
Next, A11U C26A: 0.674; U18C A34U: 0.149.
Then C27A G41C, with 0.152; and G16U G28C, with 1.02; and A11G U18G, with 0.0264.
Consider G42C G44C, for which the self-cleavage came out at 0.17.
Next, A23G G39A: 0.143; G16A G39A: 0.185; G28A G48C: 0.94.
Take A30G G44A: the self-cleavage is 0.85.
Next, G7C G39C: 0.071; C9G G16A: 0.329; A4G G24A: 0.0846.
Take C19A A33G: the self-cleavage came to 0.155.
With G17A A22C, the self-cleavage amounted to 0.669.
Then C8A G16U, with 0.144.
For U6G C21U, the self-cleavage amounted to 0.0405.
Next, U6C G16A: 0.318; G28A A33C: 0.873; G7U A32U: 0.101.
In the case of G7C A32C, the self-cleavage worked out at 0.0784.
Next, G13A A40C: 0.224; A34C A35G: 0.212; C5G U18A: 0.104.
Regarding G39A G47U, the self-cleavage amounted to 0.238.
Then G7A G36A, with 0.109.
Then A4U G29U, with 0.094; and G16C U37A, with 0.165; and G16C U37C, with 0.0928.
Next, C15G A34C: 0.0577; G17C A40U: 0.0929.
For the variant G17C A40C, the self-cleavage was determined as 0.117.
Turning to C5G C46A, the self-cleavage worked out at 0.776.
Take A11U G44C: the self-cleavage was found to be 0.969.
In the case of C26U G38U, the self-cleavage was 0.201.
With A1G G42U, the self-cleavage amounted to 0.187.
Then A30U A33U, with 0.873; and A30G G42A, with 0.413; and U12C A22U, with 0.805.
Then U6A A22U, with 0.816; and C5U G29A, with 0.739.
As for U12C G28C, the self-cleavage was 0.814.
G24C G28U: the self-cleavage was found to be 0.0961.
As to G29C A33U, the self-cleavage was 0.579.
Then G13U G39C, with 0.11; and C19G G28A, with 0.211.
As for G16U G43A, the self-cleavage stood at 0.203.
As to A2C A32C, the self-cleavage came to 0.1.
Then G36C G47U, with 0.376; and U37G G45U, with 0.47; and U18G A33C, with 0.0995.
As to G24U G29A, the self-cleavage was found to be 0.127.
With U12C C14A, the self-cleavage was found to be 0.818.
Next, U6G A11U: 0.381.
Then U18A U31A, with 0.584; and C14G A22G, with 0.0913.
Consider C26A A40C, for which the self-cleavage came to 0.119.
Next, C25U C27A: 0.509; C25U C27G: 0.101.
Then C19U A32C, with 1.05.
Regarding G41U C46U, the self-cleavage worked out at 0.68.
In the case of C9A A34G, the self-cleavage turned out to be 0.501.
On to C21U U37A, for which the self-cleavage stood at 0.0811.
Then G39A G44A, with 0.339; and A10G C26A, with 0.518.
Then G17U C21U, with 0.0901; and C15G A33G, with 0.0911.
In the case of A11G C46G, the self-cleavage was determined as 0.938.
Next, G7C A30C: 0.0728; C21A G29A: 0.132; A35G G39A: 0.374.
For A11C G39U, the self-cleavage stood at 0.214.
For U12A A35C, the self-cleavage was 1.09.
Turning to C27A G43U, the self-cleavage is 0.122.
Then G13C C20G, with 0.0962.
Next, A33U G45C: 0.554.
Next, G7C G28A: 0.0408; G28C G44U: 0.738.
For the variant C21G A22C, the self-cleavage was determined as 0.0386.
Then C15G G39U, with 0.0441.
With A23C U37G, the self-cleavage is 0.0666.
With U37C G41C, the self-cleavage was 0.087.
Take C20U C46G: the self-cleavage was determined as 0.815.
Next, C25U U31G: 0.627; U31A G48A: 0.717; U12C C25G: 0.439.
For C3A G48A, the self-cleavage amounted to 0.277.
Next, G17C A22G: 0.0562.
Then C15G C19A, with 0.0812; and G24A A35G, with 0.0812; and A23C A33U, with 0.13.
As for G24U U37C, the self-cleavage came to 0.0947.
U31C A32C: the self-cleavage was found to be 0.965.
Next, A30G G41U: 0.772.
Then G17A G28U, with 0.258; and G43A G48U, with 0.291.
In the case of A33U U37A, the self-cleavage is 0.688.
Next, U6A G42C: 0.291; A4C A23C: 0.0177; G45A G47U: 0.701.
Then G45A G47C, with 0.539.
Then G7U C9U, with 0.0542; and C3U G44U, with 0.436.
Turning to A1C G45A, the self-cleavage worked out at 0.184.
Then C3A G17A, with 0.0964; and C14A G16U, with 0.394.
Turning to C9U A33U, the self-cleavage turned out to be 0.751.
In the case of C8A G39A, the self-cleavage was found to be 0.154.
As to A11C C20G, the self-cleavage came out at 0.131.
Then A1U C15U, with 0.0337; and A2C G36C, with 0.0351.
Next, C9G A22U: 0.187; A2C G16A: 0.116.
A30U U31A: the self-cleavage was found to be 0.931.
Consider A1C U37G, for which the self-cleavage was found to be 0.262.
Next, G17U G47C: 0.183.
As for C14U A33U, the self-cleavage is 1.07.
On to A1G A34C, for which the self-cleavage was determined as 0.186.
As to G7U U12A, the self-cleavage was 0.0775.
Then G39C, with 0.158; and C20A G36C, with 0.0494.
Turning to G7C G29C, the self-cleavage turned out to be 0.0533.
As for C5U A34U, the self-cleavage amounted to 0.631.
G16A G24U: the self-cleavage is 0.113.
As to C15A A23U, the self-cleavage came out at 0.0658.
Consider A22C G43U, for which the self-cleavage is 0.273.
Then A4G U18G, with 0.0583.
In the case of C20G G28U, the self-cleavage was 0.233.
On to A4C U12C, for which the self-cleavage stood at 0.228.
Then C21G A23C, with 0.0558; and G13U A30G, with 0.926.
For the variant C15G C25U, the self-cleavage amounted to 0.165.
U18C C21U: the self-cleavage worked out at 0.0707.
As for G16C C20G, the self-cleavage was determined as 0.104.
Next, C8G G17A: 0.0824; A32G G48C: 0.976.
G24A G48U: the self-cleavage was 0.0761.
Next, G28U G42U: 0.238.
For the variant G13U U37G, the self-cleavage stood at 0.119.
Take G13U U37A: the self-cleavage was 0.133.
G28U A30U: the self-cleavage was determined as 0.985.
For the variant G28A G43U, the self-cleavage came out at 0.326.
Next, C3G G42A: 0.111.
On to C9A G16A, for which the self-cleavage stood at 0.372.
